B1: C9orf9 (parent)
chain: LTKASLKPRGCSKPPWRPPGGKL
B2: VDR (parent)
chain: LIKFQVGLKKLNLHEEEHVLLMAI

Variants of: B1
Test: protein stability index of a GFP-peptide fusion (GPS, HEK-293T) (PSI 1-6); higher = more stable
Conditions: c terminus: native
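Also: lentivirally expressed fusions sorted by FACS into six bins by GFP to DsRed ratio, PSI derived from sequencing read proportions per bin multiplied by bin number.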

Row | Variant | protein stability index
1 | K22N | 3.08
2 | K22G | 2.1
3 | K22S | 2.67
4 | K22Q | 3.53
5 | K22V | 4.26
6 | K22M | 2.73
7 | K22C | 3.7
8 | K22Y | 3.71
9 | K22F | 2.03
10 | G10V | 2.19
11 | G10E | 2.18
12 | G10I | 2.47
13 | G10Q | 1.88
14 | G10H | 2.29
15 | G10T | 2.5
16 | G10D | 2.36
17 | G10R | 3.37
18 | G10K | 2.43
19 | G10Y | 2.25
20 | G10W | 2.02
21 | G10P | 2.24
22 | G10M | 2.19
23 | G10A | 2.74
24 | G10C | 1.97

Row | Variant | protein stability index
25 | G10F | 1.91
26 | G10L | 2.96
27 | G10S | 2.7
28 | G10N | 2.06
29 | W16Y | 2.25
30 | W16G | 2.29
31 | W16F | 2.03
32 | W16E | 2.19
33 | W16V | 3.43
34 | W16I | 1.87
35 | R17Q | 4.16
36 | R17A | 3.53
37 | R17S | 4.71
38 | R17L | 3.69
39 | R17N | 4.2
40 | R17V | 3.35
41 | R17D | 3.87
42 | R17W | 3.47
43 | R17M | 3.49
44 | R17F | 3.37
45 | R17K | 3.26
46 | R17P | 2.71
47 | C11M | 1.71
48 | C11G | 2.13

Row | Variant | protein stability index
49 | C11I | 2.1
50 | C11L | 2.39
51 | C11S | 2
52 | C11Q | 1.54
53 | C11D | 1.76
54 | C11W | 2.1
55 | C11N | 1.58
56 | C11V | 2.1
57 | C11H | 3.08
58 | C11Y | 1.27
59 | C11P | 1.65
60 | R9I | 1.85
61 | R9S | 1.95
62 | R9W | 2.31
63 | R9Y | 3.3
64 | R9M | 2.33
65 | R9F | 1.15
66 | R9Q | 2.68
67 | R9L | 2.96
68 | R9C | 3.36
69 | R9E | 1.9
70 | R9H | 1.35
71 | R9P | 1.34
72 | R9A | 1.7

Row | Variant | protein stability index
73 | R9T | 1.45
74 | R9N | 2.07
75 | R9V | 2.91
76 | R9G | 1.37
77 | A4T | 1.78
78 | A4S | 2.02
79 | A4Q | 1.65
80 | A4P | 3.55
81 | A4C | 1.63
82 | A4H | 1.96
83 | A4W | 2.44
84 | A4F | 1.75
85 | A4M | 1.69
86 | A4V | 1.58
87 | A4L | 1.08
88 | A4I | 1.61
89 | A4D | 1.25
90 | A4K | 1.8
91 | A4G | 1.36
92 | A4N | 2
93 | K3Y | 2.73
94 | K3L | 2.36
95 | K3E | 1.97
96 | K3Q | 2.6

Row | Variant | protein stability index
97 | K3G | 1.74
98 | K3T | 2.19
99 | K3S | 1.91
100 | K3D | 2.39
101 | K3N | 2.08
102 | K3H | 2.28
103 | K3V | 2.86
104 | K3P | 2.66
105 | K3F | 1.51
106 | K3A | 1.38
107 | P15H | 2.18
108 | P15E | 3.93
109 | P15Y | 2.73
110 | P15M | 1.78
111 | P15L | 3.21
112 | P15I | 2.36
113 | P15W | 1.16
114 | P15Q | 2.77
115 | P15G | 2.02
116 | P15N | 1.77
117 | P15R | 2.34
118 | P15T | 3.08
119 | P15V | 2.02
120 | P15D | 3.75

Row | Variant | protein stability index
121 | L1P | 2.06
122 | L1N | 3.8
123 | L1V | 1.8
124 | L1Q | 3.17
125 | L1E | 2.09
126 | L1M | 1.86
127 | L1S | 2.78
128 | L1W | 1.89
129 | L1T | 1.85
130 | L1H | 1.82
131 | L1Y | 2.31
132 | L1K | 1.85
133 | L1I | 1.71
134 | L1G | 2.5
135 | L1F | 2.29
136 | L1D | 1.76
137 | L1R | 2.13
138 | K7N | 2.32
139 | K7G | 1.51
140 | K7S | 1.53
141 | K7H | 2.31
142 | K7E | 1.51
143 | K7F | 1.78
144 | K7V | 2.25

Row | Variant | protein stability index
145 | K7A | 2.72
146 | K7L | 1.69
147 | K7I | 1.56
148 | K7C | 1.68
149 | K7T | 2.25
150 | K7M | 2.66
151 | L23C | 1.68
152 | L23P | 3.08
153 | L23F | 1.24
154 | L23W | 1.03
155 | L23Q | 2.91
156 | L23M | 2.1
157 | L23R | 3.08
158 | L23Y | 2.13
159 | L23N | 1.92
160 | L23H | 2.48
161 | T2F | 1.95
162 | T2R | 1.85
163 | T2V | 1.58
164 | T2H | 2.12
165 | T2K | 2.28
166 | T2G | 1.36
167 | T2I | 1.86
168 | T2N | 2.21

Row | Variant | protein stability index
169 | T2P | 2.72
170 | T2S | 2.59
171 | T2C | 1.96
172 | T2D | 1.78
173 | T2L | 2.26
174 | T2A | 1.67
175 | T2Q | 1.32
176 | K13Q | 2.3
177 | K13S | 2.62
178 | K13C | 2.9
179 | K13I | 2.1
180 | K13E | 3.46
181 | K13M | 2.87
182 | K13G | 2.78
183 | K13R | 1.49
184 | K13D | 3.65
185 | G21A | 1.86
186 | G21P | 2.03
187 | G21K | 4.05
188 | G21V | 3.39
189 | G21Y | 2.35
190 | G21R | 1.75
191 | G21W | 2.02
192 | S12H | 1.53

Row | Variant | protein stability index
193 | S12I | 2.3
194 | S12F | 1.3
195 | S12A | 2.42
196 | S12N | 2.05
197 | S12L | 1.66
198 | S12P | 1.48
199 | S12E | 2.02
200 | S12V | 2.52
201 | S12M | 5.53
202 | S12T | 3.8
203 | S12W | 3.5
204 | S12C | 1.49
205 | S12R | 1.34
206 | S12G | 1.99
207 | L6Q | 4.53
208 | L6S | 2.47
209 | L6T | 1.87
210 | L6Y | 2.04
211 | L6F | 2.35
212 | L6H | 1.89
213 | L6R | 2.17
214 | L6I | 1.37
215 | L6D | 1.5
216 | L6P | 1.9

Row | Variant | protein stability index
217 | P14S | 1.38
218 | P14A | 1.54
219 | P14L | 2.24
220 | P14W | 1.94
221 | P14V | 2.36
222 | G20N | 2.27
223 | G20C | 2.91
224 | G20M | 2.13
225 | G20R | 2.18
226 | G20H | 3.77
227 | G20V | 3.83
228 | G20D | 4.64
229 | G20I | 2.42
230 | G20F | 3.03
231 | G20Y | 2.56
232 | G20K | 3.36
233 | G20S | 2.76
234 | S5W | 3.95
235 | S5M | 1.83
236 | S5T | 2.08
237 | S5H | 1.55
238 | S5L | 2.21
239 | S5Q | 3.27
240 | S5E | 1.81

Row | Variant | protein stability index
241 | S5G | 1.24
242 | S5C | 1.86
243 | S5K | 2.43
244 | S5D | 1.19
245 | S5A | 2.57
246 | S5F | 2.03
247 | S5I | 2.9
248 | S5V | 2.5
249 | S5P | 2.21
250 | S5N | 1.99
251 | P18Q | 2.26
252 | P18R | 2.46
253 | P18L | 1.32
254 | P18M | 3.68
255 | P18K | 2.85
256 | P18Y | 2.86
257 | P18N | 2.93
258 | P18I | 2.18
259 | P18H | 3.78
260 | P18W | 2.9
261 | P19S | 3.87
262 | P19E | 4.05
263 | P19C | 2.91
264 | P19T | 3.72

Row | Variant | protein stability index
265 | P19G | 3.44
266 | P19L | 3.21
267 | P19F | 1.69
268 | P19H | 2.23
269 | P19V | 1.78
270 | P19D | 4.43
271 | P19I | 1.24
272 | P19Y | 1.22
273 | P19N | 4.1
274 | P19R | 2.6
275 | P19M | 3.15
276 | P8H | 1.65
277 | P8F | 2.51
278 | P8W | 4.77
279 | P8M | 2.53
280 | P8L | 2.77
281 | P8Q | 4.76
282 | P8Y | 2.15
283 | P8A | 3.56

Variants of: B2
Test: as above
Conditions: c terminus: a fixed tail appended

Row | Variant | protein stability index
284 | M22H | 2.06
285 | M22F | 2.88
286 | M22N | 2.99
287 | M22R | 1.33
288 | M22Y | 2.25
289 | M22S | 1.68
290 | M22T | 1.84
291 | M22W | 2.81
292 | M22Q | 2.36
293 | M22L | 2.66
294 | M22I | 2.91
295 | M22P | 2.09
296 | M22K | 1.7
297 | M22G | 2.01
298 | I24Q | 2.48
299 | I24A | 2.8
300 | I24C | 3.08
301 | I24S | 1.97

Row | Variant | protein stability index
302 | I24W | 2.33
303 | I24P | 1.21
304 | I24N | 2.74
305 | I24K | 2.69
306 | I24D | 1.87
307 | I24Y | 3.26
308 | I24F | 3.74
309 | I24E | 2.55
310 | I24T | 1.85
311 | I24R | 2.35
312 | A23V | 1.85
313 | A23Y | 3.16
314 | A23E | 2.23
315 | A23D | 3.29
316 | A23R | 2.37
317 | A23L | 3.49
318 | A23H | 2.49

From the supplement of paper PMC10567573
